# Legend:
# Settings in all cases: both partners purified
# [1] = biological target: T1, GST-Cmd1 (yeast calmodulin fused to glutathione-S-transferase) (S. cerevisiae (yeast), UniProt P06787 1-147); assay: pull-down; MBP-fused TRPY1 fragments (12 ug) immobilised on amylose resin, incubated with 12 ug GST-Cmd1 or GST-Cmd1–6 with 2 mM Ca2+, 60 min, 4 °C; bound protein detected by anti-GST blot
# T1 construct: Yeast calmodulin Cmd1, wild type; In the peptide scan the same fusion protein was used ^14C-labelled (^14C-GST-Cmd1); also called GST-fused Cmd1; yeast CaM; source: E. coli, purified (glutathione sepharose)
# 6His-Cmd1 = biological target: T2, 6His-Cmd1 (S. cerevisiae (yeast), UniProt P06787 1-147); assay: pull-down; GST, GST-Cmd1 or GST-TRPY1-C (12 ug) immobilised on glutathione sepharose; 6His-Sumo-TRPY1-N or 12 ug 6His-Cmd1 added, 2 mM CaCl2, 60 min, 4 °C; SDS-PAGE and Coomassie blue staining
# T2 construct: Yeast calmodulin Cmd1, wild type; also called yeast CaM; source: E. coli, purified (Ni–NTA agarose)
# [2] = biological target: T1, GST-Cmd1 (yeast calmodulin fused to …); assay: peptide or protein array; 20-mer TRPY1 peptides shifted by five residues on cellulose membrane (16 nmoles per spot); ^14C-GST-Cmd1 (60 cpm per spot) in 50 mM Tris pH 7.5, 150 mM NaCl, 0.1% Triton X-100, 2 mM CaCl2, 4 °C, 16 h; autoradiography
# T1 sequence (P06787 whole entry, the tested form may be a part): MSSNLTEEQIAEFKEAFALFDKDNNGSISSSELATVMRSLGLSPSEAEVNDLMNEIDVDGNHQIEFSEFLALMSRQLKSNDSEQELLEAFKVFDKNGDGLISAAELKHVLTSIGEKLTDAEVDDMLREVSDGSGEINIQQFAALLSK
# T2 sequence (P06787 whole entry): as the sequence (P06787 whole entry, the tested form may be a part) above
binder,measurement,setting,value
"MBP-TRPY1-C (cytosolic C terminus of TRPY1 fused to maltose-binding protein) (domain or fragment, S. cerevisiae, UniProt Q12324 538-675, looked up, TRPY1 (Yvc1, gene YVC1), Saccharomyces cerevisiae; cytosolic C terminus, printed as 137 amino acids, residues 538-675 (K538 to E675); The limits 538-675 are printed for GST-TRPY1-C and for 'the complete recombinant TRPY1 C terminus'; also called MBP-fused TRPY1-C; Yvc1 C terminus; source: E. coli, purified (amylose resin)) KETREARRIKYNRMKRLNDDANEYDTPWDLTDGYLDDDDGLFSDNRNSGMRATQLKNSRSLKLQRTAEQEDVHFKVPKKWYKNVKKCSPSFEQYDNDDTEDDAGEDKDEVKELTKKVENLTAVITDLLEKLDIKDKKE",binding result,[1],binds
"GST-TRPY1-C (538–675) (domain or fragment, S. cerevisiae, UniProt Q12324 538-675, looked up, TRPY1 (Yvc1), Saccharomyces cerevisiae; cytosolic C terminus, printed as 137 amino acids, residues 538-675 (K538 to E675); also called GST-tagged TRPY1-C; source: E. coli, purified (glutathione sepharose)) KETREARRIKYNRMKRLNDDANEYDTPWDLTDGYLDDDDGLFSDNRNSGMRATQLKNSRSLKLQRTAEQEDVHFKVPKKWYKNVKKCSPSFEQYDNDDTEDDAGEDKDEVKELTKKVENLTAVITDLLEKLDIKDKKE",binding result,6His-Cmd1,binds
"VYSPFLLLISVKETREARRI (peptide, UniProt Q12324 527-546, looked up, source: synthetic peptide, spot-synthesised on cellulose membrane) [TRPY1 C-terminal peptide of the peptide scan, residues 527–546]",binding result,[2],binds

# — article PMC8449268, “Activity of the yeast vacuolar TRP channel TRPY1 is inhibited by Ca^2+–calmodulin binding” (The Journal of Biological Chemistry, 2021)
